{
  "source": "paper PMC5817353",
  "about": "“Iron Sulfur and Molybdenum Cofactor Enzymes Regulate the Drosophila Life Cycle by Controlling Cell Metabolism” (Frontiers in Physiology, 2018)",
  "binders": {"B1": {"name": "human frataxin (FXN) (natural protein, UniProt Q16595 42-210, looked up)", "chain": "LRTDIDATCTPRRASSNQRGLNQIWNVKKQSVYLMNLRKSGTLGHPGSLDETTYERLAEETLDSLAEFFEDLADKPYTFEDYDVSFGSGVLTVKLGGDLGTYVINKQTPNKQIWLSSPSSGPKRYDWTGKNWVYSHDGVSLHELLAAELTKALKTKLDLSSLAYSGKDA"}},
  "molecular_target": "Drosophila Nfs1^Δ1–53/Isd11/IscU complex (Drosophila melanogaster, UniProt Q9VKD3 54-462; O46098 1-92; Q9VHK6 1-154)",
  "sequence (Q9VKD3 54-462, stated change not applied, chain 1 of 3)": "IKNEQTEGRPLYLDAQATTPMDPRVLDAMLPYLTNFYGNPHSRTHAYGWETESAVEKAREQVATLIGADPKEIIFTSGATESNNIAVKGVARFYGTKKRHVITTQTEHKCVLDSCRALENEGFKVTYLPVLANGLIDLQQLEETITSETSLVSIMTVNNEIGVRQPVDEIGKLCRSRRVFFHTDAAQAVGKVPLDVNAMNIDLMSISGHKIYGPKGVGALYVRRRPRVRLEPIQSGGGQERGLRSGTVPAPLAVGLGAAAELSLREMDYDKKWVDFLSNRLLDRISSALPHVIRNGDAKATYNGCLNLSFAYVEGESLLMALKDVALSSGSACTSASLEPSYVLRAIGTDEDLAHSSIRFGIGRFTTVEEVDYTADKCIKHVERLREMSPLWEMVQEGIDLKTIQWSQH",
  "sequence (O46098 whole entry, stated change not applied, chain 2 of 3)": "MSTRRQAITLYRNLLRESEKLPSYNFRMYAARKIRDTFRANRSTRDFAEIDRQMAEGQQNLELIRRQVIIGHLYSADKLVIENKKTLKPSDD",
  "sequence (Q9VHK6 whole entry, stated change not applied, chain 3 of 3)": "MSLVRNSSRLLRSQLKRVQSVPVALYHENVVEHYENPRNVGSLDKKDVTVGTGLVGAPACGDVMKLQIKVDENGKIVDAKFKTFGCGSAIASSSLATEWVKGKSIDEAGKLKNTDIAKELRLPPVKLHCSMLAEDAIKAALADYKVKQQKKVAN",
  "assay": "cell-based or functional assay",
  "data": [
    {"binder": "B1", "values": [
      {"measurement": "L-cysteine desulfurase activity (total sulfide produced, methylene blue) of the IscU/Nfs1^Δ1–53/Isd11 complex on addition of human frataxin, 1:3 [Nfs1]:[FXN], anaerobic, 10 min at 23°C", "value": 6, "unit": "fold"}
    ]}
  ]
}
